Source: article PMC4460818

Molecular target: His-NDR1^3E (human) (UniProt Q15208)
Sequence (Q15208 other isoform, or with tags, fused parts or gaps): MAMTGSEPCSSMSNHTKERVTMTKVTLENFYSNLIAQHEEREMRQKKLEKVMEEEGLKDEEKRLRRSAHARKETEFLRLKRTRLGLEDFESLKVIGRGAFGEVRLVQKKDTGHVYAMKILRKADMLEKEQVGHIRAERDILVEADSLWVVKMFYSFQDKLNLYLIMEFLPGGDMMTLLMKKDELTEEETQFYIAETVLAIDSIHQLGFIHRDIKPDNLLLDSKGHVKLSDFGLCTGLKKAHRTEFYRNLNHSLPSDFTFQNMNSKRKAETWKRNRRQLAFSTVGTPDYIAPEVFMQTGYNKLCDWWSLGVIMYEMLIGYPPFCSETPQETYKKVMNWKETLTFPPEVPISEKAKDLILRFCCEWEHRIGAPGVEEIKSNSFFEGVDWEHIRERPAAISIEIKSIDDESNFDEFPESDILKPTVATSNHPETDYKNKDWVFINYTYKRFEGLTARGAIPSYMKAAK

Km toward the 10-mer substrate peptide SP in a fluorimetric kinase assay, relative to wild type NDR1: 1.7 fold
Binder: KKRNRRLSVA [10-mer NDR1 substrate peptide]
